Measured values reported in the RNAGym collection of RNA variant scans (doi:10.7554/elife.80360).

B1: HDV Ribozyme (parent)
chain: GGCCGGCAUGGUCCCAGCCUCCUCGCUGGCGCCGGCUGGGCAACAUUCCGAGGGGACCGUCCCCUCGGUAAUGGCGAAUGGGACCCA

Variants of: B1
Experiment: self-cleavage, relative activity (ratio to wild type); higher = more cleavage; co-transcriptional

Row | Variant | self-cleavage
1 | G11A C85U | 0.787
2 | G11U C61A | 0.355
3 | G11U C61G | 0.315
4 | G11U C61U | 0.443
5 | G11C A45C | 0.116
6 | G11C G29A | 0
7 | G11A A87G | 0.502
8 | G11A G53U | 0.588
9 | G11C A56C | 0.598
10 | G11C A56U | 0.111
11 | G11C C18U | 0.0992
12 | G11C C18A | 0.0804
13 | G10U U37G | 0.0978
14 | G11C | 0.314
15 | G11U | 0.366
16 | G11A | 0.42
17 | G11C G40C | 0.0475
18 | G11C G40A | 0.208
19 | G11C C44U | 0.0437
20 | G11C C44A | 0.0923
21 | G11C C44G | 0
22 | G10U U60A | 0.635
23 | G11A U60G | 0.399
24 | G11A U60C | 0.43

Row | Variant | self-cleavage
25 | G11C U37G | 0.101
26 | G11U G52A | 0.375
27 | G11U G52C | 0.218
28 | G11U G39A | 0.128
29 | G11U C22A | 0.0179
30 | G11U C22U | 0.103
31 | G11U C22G | 0
32 | G11C G17C | 0.0536
33 | G11C G17A | 0.231
34 | G11A C26U | 1.12
35 | G10U U47A | 0.514
36 | G10U U47C | 0.499
37 | G11A G25U | 0.0801
38 | G11A G25C | 0.0906
39 | G11U G31C | 0.146
40 | G11C G52A | 0.232
41 | G11C G52U | 0.228
42 | G11U G29A | 0.158
43 | G11U G29U | 0.0536
44 | G11U G29C | 0.0231
45 | G11U G28C | 0.0992
46 | G11A G31C | 0.0997
47 | G11A G31A | 0.114
48 | G10U U65G | 0.619

Row | Variant | self-cleavage
49 | G11U A42G | 0.0386
50 | G11U A42C | 0.0308
51 | G11A A78G | 0.193
52 | G11A C15G | 0.138
53 | G11C C75A | 0.0536
54 | G11C C75G | 0.133
55 | G11U G38U | 0.0961
56 | G11U A45G | 0.587
57 | G11U A45C | 0.0841
58 | G11A U72C | 0.121
59 | G11A U72A | 0.179
60 | G10U U23G | 0.0791
61 | G10U U23C | 0.62
62 | G10U U23A | 0.604
63 | G11U C84U | 0.292
64 | G11U C84A | 1.12
65 | G11C G54C | 0.291
66 | G11C G54A | 0.277
67 | G11A U46A | 0.148
68 | G11A U46G | 0.128
69 | G11U A16C | 0.38
70 | G11C U27A | 0.646
71 | G11C U27C | 0.196
72 | G11U C26A | 0.689

Row | Variant | self-cleavage
73 | G11C U60C | 0.511
74 | G11C U60A | 0.0831
75 | G11C U60G | 0.256
76 | G11C U65G | 0
77 | G11C U65A | 0.293
78 | G11A U47C | 0.475
79 | G11A U47G | 0.58
80 | G11C C84A | 0.458
81 | G11C G68U | 0.291
82 | G11C G68C | 0.0831
83 | G11C A77G | 0.138
84 | G11C A77U | 0.0462
85 | G11A C13A | 0.0791
86 | G11C G80A | 0.136
87 | G11U C57U | 0.282
88 | G11A G76A | 0.578
89 | G11A G76U | 0.623
90 | G11U G25C | 0.104
91 | G11U G25A | 0
92 | G11C C62A | 0.475
93 | G10U U27G | 0.465
94 | G10U U27A | 0.642
95 | G11U A78C | 0.02
96 | G11U A78G | 0.106

Row | Variant | self-cleavage
97 | G11U G35C | 0.0449
98 | G11U G35A | 0.241
99 | G11C A87G | 0.34
100 | G11C A87C | 0.607
101 | G11C C36A | 0.0536
102 | G11U C58A | 0.326
103 | G11A G74A | 0.0769
104 | G11A G74U | 0.123
105 | G11A G34U | 0.219
106 | G11A G34A | 0.358
107 | G11U A87U | 0.199
108 | G11U G50U | 0.583
109 | G11U C66A | 0.31
110 | G11C U23A | 0.465
111 | G11A C62A | 0.352
112 | G11A C62U | 0.354
113 | G11C C49A | 0.388
114 | G11A C64G | 0.705
115 | G11A C64U | 0.249
116 | G11U C48G | 0.212
117 | G11U G17C | 0.203
118 | G11U G17U | 0.308
119 | G11U G17A | 0.45
120 | G11U A71G | 0.302

Row | Variant | self-cleavage
121 | G11U A71U | 0.158
122 | G11U C18G | 0.158
123 | G11U C15G | 0.166
124 | G11A C33G | 0.0554
125 | G11A C33A | 0.151
126 | G11A C49G | 0.156
127 | G11A G68A | 0.372
128 | G11A G68U | 0.249
129 | G11U G54A | 0.313
130 | G11U G54C | 0.57
131 | G11C C41G | 0.712
132 | G11C C41U | 0.0831
133 | G11C G73C | 0.0346
134 | G11A U12G | 0.0875
135 | G11A U12C | 0.0415
136 | G11A U12A | 0.0831
137 | G11U G59U | 0.41
138 | G11U G59C | 0.297
139 | G11U G59A | 0.499
140 | G11A G73A | 0.124
141 | G11A G73U | 0.0769
142 | G11A G73C | 0.0252
143 | G11A G29A | 0.0633
144 | G11U C24A | 0.112

Row | Variant | self-cleavage
145 | G11C U79G | 0.0875
146 | G11C U79A | 0.0723
147 | G11C C32A | 0.0437
148 | G11U C33U | 0.0997
149 | G11U C33G | 0.0594
150 | G11A C41G | 0.188
151 | G11A C41A | 0.381
152 | G11A C41U | 0.396
153 | G11C G38C | 0.0755
154 | G11U A70U | 0.228
155 | G11U A70G | 0.201
156 | G11C A70U | 0.399
157 | G11A C30A | 0.106
158 | G11A C30G | 0.0225
159 | G11C U47C | 0.453
160 | G11C U47G | 0.383
161 | G11C U72A | 0.0875
162 | G11U G68A | 0.205
163 | G11U G68U | 0.17
164 | G11U G68C | 0.297
165 | G10U U72G | 0.407
166 | G11C A16C | 0.95
167 | G11U G67C | 0.262
